From patent US20220243360A1 (ROCHE SEQUENCING SOLUTIONS, published 2022)
No end group written: not given here.

T1: biotin-labeled DsbA (UniProt P0AEG4 20-208, limits assumed, biotin-labeled)
T1 sequence (looked up): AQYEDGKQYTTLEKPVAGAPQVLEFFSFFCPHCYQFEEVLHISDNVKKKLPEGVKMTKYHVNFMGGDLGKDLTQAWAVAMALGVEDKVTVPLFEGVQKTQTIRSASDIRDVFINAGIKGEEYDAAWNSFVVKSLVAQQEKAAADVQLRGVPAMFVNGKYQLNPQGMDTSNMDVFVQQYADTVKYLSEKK


Each binder was assayed against T1, biotin-labeled DsbA (assay: Biacore X100 per the table title, biotin-DsbA on streptavidin chip; paragraph 121 says Biacore or ITC (Duprez 2015)).

Question: PSPWATCDF-NH2 [PSPWATCDF-NH2] was tested. Which Kd did it give?
Answer: 2900 nM

These binders were tested against T1, biotin-labeled DsbA (assay: peptide microarray fluorescence (Cy5), peptide on the array, biotin-DsbA in solution).

Question: How did the “SIGNAL INTENSITY” value turn out when PSPWATCDF-NH2 [PSPWATCDF-NH2] was run?
Answer: 82

Question: How did the “SIGNAL INTENSITY” value turn out when YVYGMCWKDYTTDK-NH2 [YVYGMCWKDYTTDK-NH2] was run?
Answer: 2300

Question: For VIVGQCLKK-NH2 [VIVGQCLKK-NH2], which “SIGNAL INTENSITY” value is on record?
Answer: 282

Question: With SIIGMCYKKDPS-NH2 [SIIGMCYKKDPS-NH2] as the binder, how does the “SIGNAL INTENSITY” value read?
Answer: 1360

Question: How did the “SIGNAL INTENSITY” value turn out when WQYENWAITKWQCVK-NH2 [WQYENWAITKWQCVK-NH2] was run?
Answer: 1430

Question: Which “SIGNAL INTENSITY” value does the source give for VIGQCLKN-NH2 [VIGQCLKN-NH2] here?
Answer: 588

Question: For DFWHGETCKVTQFDQ-NH2 [DFWHGETCKVTQFDQ-NH2], which “SIGNAL INTENSITY” value is on record?
Answer: 1800

Question: Which “SIGNAL INTENSITY” value does the source give for DFWHGEQCKVTQFDQ-NH2 [DFWHGEQCKVTQFDQ-NH2] here?
Answer: 4590

Question: How did the “SIGNAL INTENSITY” value turn out when DFWHGDTCKVTQFDQ-NH2 [DsbA_1_WT] was run?
Answer: 1750

Question: Which “SIGNAL INTENSITY” value does the source give for NDYQYKGQQCLDPKY-NH2 [NDYQYKGQQCLDPKY-NH2] here?
Answer: 3620

Question: Which “SIGNAL INTENSITY” value does the source give for VILGQCLKQ-NH2 [VILGQCLKQ-NH2] here?
Answer: 965

Question: HNWAAQCLKDQAKL-NH2 [HNWAAQCLKDQAKL-NH2] was tested. Which “SIGNAL INTENSITY” value did it give?
Answer: 1760

Question: How did the “SIGNAL INTENSITY” value turn out when YVYGMCWKDYTDTDK-NH2 [YVYGMCWKDYTDTDK-NH2] was run?
Answer: 2110

Question: How did the “SIGNAL INTENSITY” value turn out when HNWAAQCLNPDQAKL-NH2 [HNWAAQCLNPDQAKL-NH2] was run?
Answer: 2640

These binders were tested against T1, biotin-labeled DsbA (assay: SPR, Biacore X100, biotin-DsbA on streptavidin chip, peptide as analyte).
Procedure: Kinetic analysis of the interaction between the discovered peptides and DsbA was performed using a Biacore XI00. Biotin-labeled DsbA (1 uM) was immobilized on streptavidin coated chip (GE Healthcare) to a target level of 1,000 response units in HBS-P+. […] Fourteen dilutions of peptide from 5000 nM to 0.6 nM in HBS-P+were flowed over the DsbA coated chip in triplicate with a contact time of 120 seconds and a dissociation time of 600 seconds. […] All peptides were amidated on the C-terminus.

Question: For YVYGMCWKDYTTDK-NH2 [YVYGMCWKDYTTDK-NH2], which Kd is on record?
Answer: 78 nM

Question: Which Kd does the source give for VIVGQCLKK-NH2 [VIVGQCLKK-NH2] here?
Answer: 622 nM

Question: SIIGMCYKKDPS-NH2 [SIIGMCYKKDPS-NH2] was tested. Which Kd did it give?
Answer: 188 nM

Question: For WQYENWAITKWQCVK-NH2 [WQYENWAITKWQCVK-NH2], which Kd is on record?
Answer: 83 nM

Question: For VIGQCLKN-NH2 [VIGQCLKN-NH2], which Kd is on record?
Answer: 623 nM

Question: Which Kd does the source give for DFWHGETCKVTQFDQ-NH2 [DFWHGETCKVTQFDQ-NH2] here?
Answer: 84 nM

Question: With DFWHGEQCKVTQFDQ-NH2 [DFWHGEQCKVTQFDQ-NH2] as the binder, how does the Kd read?
Answer: 53 nM

Question: Which Kd does the source give for DFWHGDTCKVTQFDQ-NH2 [DsbA_1_WT] here?
Answer: 208 nM

Question: How did the Kd turn out when NDYQYKGQQCLDPKY-NH2 [NDYQYKGQQCLDPKY-NH2] was run?
Answer: 48 nM

Question: For VILGQCLKQ-NH2 [VILGQCLKQ-NH2], which Kd is on record?
Answer: 517 nM

Question: Which Kd does the source give for HNWAAQCLKDQAKL-NH2 [HNWAAQCLKDQAKL-NH2] here?
Answer: 88 nM

Question: Which Kd does the source give for YVYGMCWKDYTDTDK-NH2 [YVYGMCWKDYTDTDK-NH2] here?
Answer: 116 nM

Question: How did the Kd turn out when SIIGQCYKKDPSQAT-NH2 [SIIGQCYKKDPSQAT-NH2] was run?
Answer: 553 nM

Question: HNWAAQCLNPDQAKL-NH2 [HNWAAQCLNPDQAKL-NH2] was tested. Which Kd did it give?
Answer: 57 nM
